Residue numbers refer to the chain shown, from its start. In names and notes the source's numbering stands.
B1: VLX8hum_08 IgG2 (antibody, V domains shown)
VH: EVQLVQSGAEVKKPGESLKISCKGSGYSFTNYYIHWVRQMPGKGLEWMGYIDPLNGDTTYNQKFKGQVTISADKSISTAYLQWSSLKASDTAMYYCARGGKRAMDYWGQGTLVTVSS
VL: DIQMTQSPSSLSASVGDRVTITCRASQSISNYLNWYQQKPGKAPKLLIYYTSRLYSGVPSRFSGSGSGTDFTLTISSLQPEDFATYYCQQGNTLPWTFGQGTKVEIKR
B2: VLX8hum_07 IgG2 (antibody, V domains shown)
VH: QVQLVQSGAEVKKPGSSVKVSCKASGYSFTNYYIHWVRQAPGQGLEWMGYIDPLNGDTTYNQKFKGRVTITADESTSTAYMELSSLRSEDTAVYYCARGGKRAMDYWGQGTLVTVSS
VL: B1 VL
B3: VLX8hum_09 IgG2 (antibody, V domains shown)
VH: B2 VH with N61A, K65Q
VL: B1 VL
B4: VLX8hum_06 IgG2 (antibody, V domains shown)
VH: B2 VH with S16A, I70M, A72R, E74T, A79V
VL: B1 VL
B5: VLX8 IgG4 PE (xi) (antibody)
heavy: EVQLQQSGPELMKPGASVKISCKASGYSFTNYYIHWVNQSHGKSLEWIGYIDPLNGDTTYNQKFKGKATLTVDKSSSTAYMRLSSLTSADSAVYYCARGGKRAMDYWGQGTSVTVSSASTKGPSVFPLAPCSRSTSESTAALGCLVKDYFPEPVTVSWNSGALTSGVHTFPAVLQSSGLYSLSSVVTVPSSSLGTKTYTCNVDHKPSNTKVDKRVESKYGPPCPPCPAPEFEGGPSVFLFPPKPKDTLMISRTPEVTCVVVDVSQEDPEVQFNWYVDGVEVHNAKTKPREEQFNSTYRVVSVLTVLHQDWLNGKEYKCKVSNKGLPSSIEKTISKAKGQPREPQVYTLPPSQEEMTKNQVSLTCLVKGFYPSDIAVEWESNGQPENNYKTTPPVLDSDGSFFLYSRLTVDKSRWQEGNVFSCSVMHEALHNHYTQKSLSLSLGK
light: DIQMTQTTSSLSASLGDRVTISCRASQDISNYLNWYQQKPDGTVKLLIYYTSRLYSGVPSRFSGSGSGTDYSLTISNLEQEDIATYFCQQGNTLPWTFGGGTKLEIKRTVAAPSVFIFPPSDEQLKSGTASVVCLLNNFYPREAKVQWKVDNALQSGNSQESVTEQDSKDSTYSLSSTLTLSKADYEKHKVYACEVTHQGLSSPVTKSFNRGEC
notes: murine-human chimera; tied through the names Vx8mur-H03/Vx8murL03 full length chains, not by an explicit VLX8 statement; also called VLX8 IgG4PE chimera
B6: VLX8 IgG1 N297Q (xi) (antibody)
heavy: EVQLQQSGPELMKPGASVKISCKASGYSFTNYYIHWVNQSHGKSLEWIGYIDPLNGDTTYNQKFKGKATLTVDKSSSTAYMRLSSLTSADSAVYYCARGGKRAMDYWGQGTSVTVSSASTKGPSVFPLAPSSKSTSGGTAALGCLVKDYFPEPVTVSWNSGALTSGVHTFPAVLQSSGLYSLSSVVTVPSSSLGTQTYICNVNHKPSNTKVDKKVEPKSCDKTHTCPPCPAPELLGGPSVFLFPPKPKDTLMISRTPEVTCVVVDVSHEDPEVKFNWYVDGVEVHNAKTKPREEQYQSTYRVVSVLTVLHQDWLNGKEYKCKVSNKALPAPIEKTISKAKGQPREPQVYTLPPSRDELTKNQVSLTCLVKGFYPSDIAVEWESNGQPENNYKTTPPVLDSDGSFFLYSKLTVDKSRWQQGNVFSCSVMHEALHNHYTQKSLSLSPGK
light: B5 light
notes: murine-human chimera
B7: VLX4 IgG1 (xi) (antibody)
heavy: not shown
light: DVLMTQTPLSLPVNLGDQASISCRSRQSIVHTNGNTYLGWFLQKPGQSPKLLIYKVSNRFSGVPDRFSGSGSGTDFTLTISRVEAEDLGVYYCFQGSHVPYTFGGGTKLEIKRTVAAPSVFIFPPSDEQLKSGTASVVCLLNNFYPREAKVQWKVDNALQSGNSQESVTEQDSKDSTYSLSSTLTLSKADYEKHKVYACEVTHQGLSSPVTKSFNRGEC
notes: murine-human chimera, human IgG1, human kappa
B8: VLX4 IgG1 N297Q (xi) (antibody)
heavy: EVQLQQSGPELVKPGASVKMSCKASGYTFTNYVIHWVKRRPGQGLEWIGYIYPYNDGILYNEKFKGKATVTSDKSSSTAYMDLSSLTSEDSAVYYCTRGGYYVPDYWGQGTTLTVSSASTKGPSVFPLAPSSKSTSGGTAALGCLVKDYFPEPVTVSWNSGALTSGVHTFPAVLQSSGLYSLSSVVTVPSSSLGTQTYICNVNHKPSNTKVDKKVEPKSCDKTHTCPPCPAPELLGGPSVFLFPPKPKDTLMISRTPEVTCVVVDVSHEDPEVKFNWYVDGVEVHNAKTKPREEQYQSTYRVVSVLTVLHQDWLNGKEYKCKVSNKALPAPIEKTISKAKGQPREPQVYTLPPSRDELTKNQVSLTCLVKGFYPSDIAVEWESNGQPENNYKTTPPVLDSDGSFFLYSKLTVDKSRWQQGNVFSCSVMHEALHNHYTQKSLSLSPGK
light: B7 light
notes: murine-human chimera, human IgG1-N297Q, human kappa
B9: VLX9 IgG2 (xi) (antibody)
heavy: QVQLQQFGAELAKPGASVQMSCKASGYTFTNYWIHWVKQRPGQGLEWIGYTDPRTDYTEYNQKFKDKATLAADRSSSTAYMRLSSLTSEDSAVYYCAGGGRVGLGYWGHGSSVTVSSASTKGPSVFPLAPCSRSTSESTAALGCLVKDYFPEPVTVSWNSGALTSGVHTFPAVLQSSGLYSLSSVVTVPSSNFGTQTYTCNVDHKPSNTKVDKTVERKCCVECPPCPAPPVAGPSVFLFPPKPKDTLMISRTPEVTCVVVDVSHEDPEVQFNWYVDGVEVHNAKTKPREEQFNSTFRVVSVLTVVHQDWLNGKEYKCKVSNKGLPAPIEKTISKTKGQPREPQVYTLPPSREEMTKNQVSLTCLVKGFYPSDIAVEWESNGQPENNYKTTPPMLDSDGSFFLYSKLTVDKSRWQQGNVFSCSVMHEALHNHYTQKSLSLSPGK
light: DVFMTQTPLSLPVSLGDQASISCRSSQNIVQSNGNTYLEWYLQKPGQSPKLLIYKVFHRFSGVPDRFSGSGSGTDFTLKISRVEAEDLGVYYCFQGSHVPWTFGGGTKVEIKRTVAAPSVFIFPPSDEQLKSGTASVVCLLNNFYPREAKVQWKVDNALQSGNSQESVTEQDSKDSTYSLSSTLTLSKADYEKHKVYACEVTHQGLSSPVTKSFNRGEC
notes: murine-human chimera; also called VLX9 IgG2 chimera
B10: VLX9 IgG1 (xi) (antibody)
heavy: not shown
light: B9 light
notes: murine-human chimera
B11: VLX9 IgG4 PE (xi) (antibody)
heavy: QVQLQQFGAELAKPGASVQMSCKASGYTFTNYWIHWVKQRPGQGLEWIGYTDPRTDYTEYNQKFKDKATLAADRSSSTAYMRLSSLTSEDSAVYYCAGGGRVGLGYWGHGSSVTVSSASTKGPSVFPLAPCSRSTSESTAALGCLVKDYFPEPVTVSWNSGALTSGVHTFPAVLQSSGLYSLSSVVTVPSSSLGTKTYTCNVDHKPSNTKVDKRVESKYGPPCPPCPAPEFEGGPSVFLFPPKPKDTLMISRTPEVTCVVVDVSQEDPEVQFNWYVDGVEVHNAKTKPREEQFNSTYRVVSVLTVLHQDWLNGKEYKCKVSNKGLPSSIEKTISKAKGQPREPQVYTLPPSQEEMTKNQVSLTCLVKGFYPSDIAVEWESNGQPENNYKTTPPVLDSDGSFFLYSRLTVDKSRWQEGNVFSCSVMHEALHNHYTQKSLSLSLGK
light: B9 light
notes: murine-human chimera
B12: VLX9 IgG1 N297Q (xi) (antibody)
heavy: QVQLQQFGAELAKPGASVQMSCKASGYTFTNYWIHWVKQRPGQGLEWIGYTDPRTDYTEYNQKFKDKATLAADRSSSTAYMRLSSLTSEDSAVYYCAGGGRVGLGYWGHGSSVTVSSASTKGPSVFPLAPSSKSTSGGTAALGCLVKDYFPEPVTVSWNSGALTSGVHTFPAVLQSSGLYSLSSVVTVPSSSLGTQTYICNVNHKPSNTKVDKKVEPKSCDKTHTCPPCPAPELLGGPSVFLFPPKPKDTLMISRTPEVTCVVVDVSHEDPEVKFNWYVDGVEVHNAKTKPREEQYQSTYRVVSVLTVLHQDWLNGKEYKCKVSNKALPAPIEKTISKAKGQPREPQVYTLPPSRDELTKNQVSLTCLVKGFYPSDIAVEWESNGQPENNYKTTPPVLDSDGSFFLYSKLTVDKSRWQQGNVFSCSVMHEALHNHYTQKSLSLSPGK
light: B9 light
notes: murine-human chimera
B13: VLX9 IgG (murine) (antibody, V domains shown)
VH: QVQLQQFGAELAKPGASVQMSCKASGYTFTNYWIHWVKQRPGQGLEWIGYTDPRTDYTEYNQKFKDKATLAADRSSSTAYMRLSSLTSEDSAVYYCAGGGRVGLGYWGHGSSVTVSS
VL: DVFMTQTPLSLPVSLGDQASISCRSSQNIVQSNGNTYLEWYLQKPGQSPKLLIYKVFHRFSGVPDRFSGSGSGTDFTLKISRVEAEDLGVYYCFQGSHVPWTFGGGTKVEIK
notes: murine IgG; tied through the names Vx9murH04/Vx9murL04; also called murine VLX9 antibody

target: T1, human CD47 (human, UniProt Q08722 19-292); experiment: cell ELISA, OV10 hCD47 cells
T1 construct: also called hCD47; CD47 on OV10 hCD47 cells, human RBCs, Jurkat cells and normal human cells
Method: OV10 hCD47 cells were grown in IMDM medium containing 10% heat inactivated fetal bovine serum (BioWest; S01520). […] Cells were washed, various concentrations of purified antibodies added in IMDM and incubated at 37° C. for 1 hr in […]. Cells were then washed with media and incubated for an additional hour at 37° C. with HRP labelled secondary anti-human antibody (Promega) diluted 1/2500 in media. Cells were washed three times with PBS, and the peroxidase substrate 3,3′, 5,5′-tetramethylbenzidine was added (Sigma; Catalog #T4444). […] The apparent binding affinities of these clones to human OV10 hCD47 cells was determined by non-linear fit (Prism GraphPad software).

Kd [pM]	Binder
464	B1
460	B2
680	B3
403	B4
56	B5
42	B6
315	B7
258	B8
880	B9
280	B10
293	B11
275	B12

target: T1, human CD47; experiment: flow cytometry on freshly isolated human RBCs, FITC-labelled donkey anti-human antibody, MFI
Method: FIG. 4A. Binding of VLX8 Humanized mAbs to Human RBCs. […] RBCs were incubated for 1 hr at 37° C. with various concentrations of VLX8 mAbs, washed and incubated for 1 hr with FITC-labeled donkey anti-human antibody. Cells were washed and antibody binding measured using flow cytometry.
(§1) Binding activities of chimeric and humanized VLX4, VLX8, and VLX9 mAbs to human CD47 on hRBCs were also determined using flow cytometry.

EC50 (read off the curve) [pM]	Binder
~200	B5

target: T1, human CD47; experiment: flow cytometry, human RBCs
Method: as §1

Kd [pM]	Binder
820	B1
671	B2
1740	B3
246	B4
77	B5
91	B6
104	B7
92	B8
742	B9
381	B10
126	B11
190	B12

target: T2, recombinant human His-CD47 (human, UniProt Q08722 19-139); experiment: ELISA, adsorbed His-CD47, pH 8
T2 construct: bought reagent; also called His-tagged human CD47 (Acro Biosystems); not shown: His tag
Method: (§2) Binding by soluble anti-CD47 mAbs to immobilized recombinant human CD47 and to human CD47 expressed on cells was measured in vitro. For the in vitro binding to recombinant CD47, His-CD47 (AcroBiosystems) was adsorbed to high-binding microtiter plates overnight at 4° C. The wells were washed and varying concentrations of anti-CD47 mAbs were added to the wells in buffers with a of either pH 6 or pH 8 for 1 hour. The wells were washed and then incubated with HRP-labelled secondary antibody for 1 hour at pH 6 or pH 8 followed by addition of peroxidase substrate. The apparent affinities were calculated using non-linear fit model (Graphpad Prism).

Kd [pM]	Binder
76	B13
137	B9
160	B11
135	B12

target: T1, human CD47; experiment: flow cytometry on freshly isolated human RBCs, FITC-labelled donkey anti-human antibody, MFI; remark: another data set of the same source
Method: FIG. 7. Binding of VLX9 Humanized mAbs to Human RBCs. […] RBCs were incubated for 60 minutes at 37° C. with various concentrations of VLX9 mAbs, washed and incubated for 1 hr with FITC-labelled donkey anti-human antibody. Cells were washed and antibody binding measured using flow cytometry.
as §1

EC50 (read off the curve) [pM]	Binder
~600	B9

target: T1, human CD47; experiment: as above; remark: another data set of the same source
Method: FIG. 4B. Binding of VLX8 Humanized mAbs to Human RBCs. […] RBCs were incubated for 1 hr at 37° C. with various concentrations of VLX8 mAbs, washed and incubated for 1 hr with FITC-labeled donkey anti-human antibody. Cells were washed and antibody binding measured using flow cytometry.
as §1

EC50 (read off the curve) [pM]	Binder
~700	B1

target: T2, recombinant human His-CD47; experiment: ELISA, adsorbed His-CD47, pH 6
Method: as §2

Kd [pM]	Binder
91	B13
130	B9
133	B11
99	B12

From patent publication US20220313819A1 (ARCH ONCOLOGY, published 2022)
